From publication PMC11191739, “Structural Flexibility and Disassembly Kinetics of Single Ferritin Molecules Using Optical Nanotweezers” (ACS Nano, 2024)

Target: the molecule itself
Assay: mass photometry; 50 nM ferritin at pH 2, measured at 1, 3 and 60 min, TwoMP mass photometer

B1: holo-ferritin (derived from equine spleen, F4503) (natural protein)
chain 1: MSSQIRQNYSTEVEAAVNRLVNLYLRASYTYLSLGFYFDRDDVALEGVCHFFRELAEEKREGAERLLKMQNQRGGRALFQDLQKPSQDEWGTTLDAMKAAIVLEKSLNQALLDLHALGSAQADPHLCDFLESHFLDEEVKLIKKMGDHLTNIQRLVGSQAGLGEYLFERLTLKHD
chain 2: MTTAFPSQVRQNYHQDSEAAINRQINLELHASYVYLSMSFYFDRDDVALKNFAKYFLHQSHEEREHAEKLMKLQNQRGGRIFLQDIKKPDQDDWENGLKAMECALHLEKNVNESLLELHKLATDKNDPHLCDFLETHYLNEQVKAIKELGDHVTNLRRMGAPESGMAEYLFDKHTLGECDES
notes: ferritin light (L) chain, equine spleen; ferritin heavy (H) chain, equine spleen; It carries a ferrihydrite iron core; Rows of m1 with itself describe the self-association of the subunits; also called equine spleen ferritin; source: bought: Sigma-Aldrich (F4503), derived from equine spleen
stoichiometry N: 18
